The results in this text go back to patent publication US20140087995A1 (published 2014).

Numbered stars: 1 amine (or outer) side, 2 acyl side, 3 side chain; on linkers, the order of the positions; unused ones are H or OH. Bridge positions count the residues as written; N and C are the ends. Side chains are listed from the residue outwards. Ends that are not written are not given here. * marks the point of attachment. C20 diacid = O=C(O)CCCCCCCCCCCCCCCCCCC(=O)*; γGlu = O=C(O)[C@H](CCC(=O)[*:2])N[*:1]; AEEA = NCCOCCOCC(=O)O

To fix the notation:
T1: human calcitonin receptor (human, UniProt P30988 25-474)
T1 construct: whole, on cells; Membranes of a BHK tk'ts 13 cell line stably transfected with the human calcitonin receptor; also called hCTR; hCT
T1 sequence (looked up): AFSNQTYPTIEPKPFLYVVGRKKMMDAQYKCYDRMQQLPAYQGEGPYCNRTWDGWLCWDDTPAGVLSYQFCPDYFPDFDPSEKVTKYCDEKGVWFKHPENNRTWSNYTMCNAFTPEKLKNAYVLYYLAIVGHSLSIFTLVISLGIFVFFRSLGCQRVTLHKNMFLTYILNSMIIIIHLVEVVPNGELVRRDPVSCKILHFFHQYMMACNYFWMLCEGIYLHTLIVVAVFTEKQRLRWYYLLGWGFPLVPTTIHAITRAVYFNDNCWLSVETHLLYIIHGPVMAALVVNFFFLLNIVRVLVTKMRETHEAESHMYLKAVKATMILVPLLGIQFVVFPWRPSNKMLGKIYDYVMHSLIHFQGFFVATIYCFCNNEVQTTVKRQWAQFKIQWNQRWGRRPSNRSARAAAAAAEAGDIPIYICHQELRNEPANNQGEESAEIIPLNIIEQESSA

T2: rat calcitonin receptor (rat, UniProt P32214 25-516)
T2 construct: whole, on cells; Membranes of BHK tk'ts 13 cells transiently transfected with the rat calcitonin receptor; also called rCTR; rat calcitonin (a) receptor
T2 sequence (looked up): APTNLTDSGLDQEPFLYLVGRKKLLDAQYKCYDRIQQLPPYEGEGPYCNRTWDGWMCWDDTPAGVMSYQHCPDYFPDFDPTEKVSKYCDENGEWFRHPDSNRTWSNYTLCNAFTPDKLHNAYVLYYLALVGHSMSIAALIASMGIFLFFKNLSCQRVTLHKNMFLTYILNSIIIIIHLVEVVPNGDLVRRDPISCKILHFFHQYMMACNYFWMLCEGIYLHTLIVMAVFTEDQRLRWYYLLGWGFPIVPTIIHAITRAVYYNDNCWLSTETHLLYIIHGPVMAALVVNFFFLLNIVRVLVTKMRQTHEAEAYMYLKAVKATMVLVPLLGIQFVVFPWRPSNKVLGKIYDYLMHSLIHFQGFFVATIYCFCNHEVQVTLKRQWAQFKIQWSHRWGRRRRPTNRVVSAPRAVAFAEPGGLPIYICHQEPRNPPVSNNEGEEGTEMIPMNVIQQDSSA

T3: rat amylin receptor (rat calcitonin receptor + rat RAMP 3) (rat, UniProt P32214 25-516; Q9JJ73 23-147)
T3 construct: whole, on cells; Membranes of BHK tk'ts 13 cells transiently transfected with the rat calcitonin receptor and rat RAMP 3; also called rAmylin-R; rat amylin 3(a) receptor
T3 sequence (looked up) 1: T2 sequence (looked up)
T3 sequence (looked up) 2: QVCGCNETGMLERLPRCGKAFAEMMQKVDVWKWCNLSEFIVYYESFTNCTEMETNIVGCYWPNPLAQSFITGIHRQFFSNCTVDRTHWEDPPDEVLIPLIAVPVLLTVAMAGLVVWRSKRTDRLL

B1: N^α1-[(4S)-4-carboxy-4-(19-carboxynonadecanoylamino)butanoyl]-[Glu14,Arg17,Pro21,Pro28,Glu35]-h-amylin (peptide)
peptide: {C20 diacid-γGlu}-KCNTATCATQRLAEFLRHSSPNFGAILPSTNVGSETY-NH2
modifications: disulfide 2-7
notes: modifications are with respect to human amylin; also called compound 33
B2: N^ε1-[2-[2-[2-[[(4S)-4-carboxy-4-(19-carboxynonadecanoylamino)butanoyl]amino]ethoxy]ethoxy]acetyl]-[Arg17,Pro21,Pro27,Glu35]-h-amylin (peptide)
peptide: K([AEEA-γGlu-C20 diacid])CNTATCATQRLANFLRHSSPNFGAIPSSTNVGSETY-NH2
modifications: disulfide 2-7; N-terminus assumed
SMILES: CC[C@H](C)[C@H](NC(=O)[C@H](C)NC(=O)CNC(=O)[C@H](Cc1ccccc1)NC(=O)[C@H](CC(N)=O)NC(=O)[C@@H]1CCCN1C(=O)[C@H](CO)NC(=O)[C@H](CO)NC(=O)[C@H](Cc1c[nH]cn1)NC(=O)[C@H](CCCNC(=N)N)NC(=O)[C@H](CC(C)C)NC(=O)[C@H](Cc1ccccc1)NC(=O)[C@H](CC(N)=O)NC(=O)[C@H](C)NC(=O)[C@H](CC(C)C)NC(=O)[C@H](CCCNC(=N)N)NC(=O)[C@H](CCC(N)=O)NC(=O)[C@@H](NC(=O)[C@H](C)NC(=O)[C@@H]1CSSC[C@H](NC(=O)[C@@H](N)CCCCNC(=O)COCCOCCNC(=O)CC[C@H](NC(=O)CCCCCCCCCCCCCCCCCCC(=O)O)C(=O)O)C(=O)N[C@@H](CC(N)=O)C(=O)N[C@@H]([C@@H](C)O)C(=O)N[C@@H](C)C(=O)N[C@@H]([C@@H](C)O)C(=O)N1)[C@@H](C)O)C(=O)N1CCC[C@H]1C(=O)N[C@@H](CO)C(=O)N[C@@H](CO)C(=O)N[C@H](C(=O)N[C@@H](CC(N)=O)C(=O)N[C@H](C(=O)NCC(=O)N[C@@H](CO)C(=O)N[C@@H](CCC(=O)O)C(=O)N[C@H](C(=O)N[C@@H](Cc1ccc(O)cc1)C(N)=O)[C@@H](C)O)C(C)C)[C@@H](C)O
notes: modifications are with respect to human amylin; also called compound 26
B3: N^ε1-[2-[2-[2-[[2-[2-[2-[[(4S)-4-carboxy-4-(19-carboxynonadecanoylamino)butanoyl]amino]ethoxy]ethoxy]acetyl]amino]ethoxy]ethoxy]acetyl]-[Arg17,Pro21,Pro27,Glu35 … (peptide)
peptide: K([AEEA-AEEA-γGlu-C20 diacid])CNTATCATQRLANFLRHSSPNFGAIPSSTNVGSETY-NH2
modifications: disulfide 2-7; N-terminus assumed
SMILES: CC[C@H](C)[C@H](NC(=O)[C@H](C)NC(=O)CNC(=O)[C@H](Cc1ccccc1)NC(=O)[C@H](CC(N)=O)NC(=O)[C@@H]1CCCN1C(=O)[C@H](CO)NC(=O)[C@H](CO)NC(=O)[C@H](Cc1c[nH]cn1)NC(=O)[C@H](CCCNC(=N)N)NC(=O)[C@H](CC(C)C)NC(=O)[C@H](Cc1ccccc1)NC(=O)[C@H](CC(N)=O)NC(=O)[C@H](C)NC(=O)[C@H](CC(C)C)NC(=O)[C@H](CCCNC(=N)N)NC(=O)[C@H](CCC(N)=O)NC(=O)[C@@H](NC(=O)[C@H](C)NC(=O)[C@@H]1CSSC[C@H](NC(=O)[C@@H](N)CCCCNC(=O)COCCOCCNC(=O)COCCOCCNC(=O)CC[C@H](NC(=O)CCCCCCCCCCCCCCCCCCC(=O)O)C(=O)O)C(=O)N[C@@H](CC(N)=O)C(=O)N[C@@H]([C@@H](C)O)C(=O)N[C@@H](C)C(=O)N[C@@H]([C@@H](C)O)C(=O)N1)[C@@H](C)O)C(=O)N1CCC[C@H]1C(=O)N[C@@H](CO)C(=O)N[C@@H](CO)C(=O)N[C@H](C(=O)N[C@@H](CC(N)=O)C(=O)N[C@H](C(=O)NCC(=O)N[C@@H](CO)C(=O)N[C@@H](CCC(=O)O)C(=O)N[C@H](C(=O)N[C@@H](Cc1ccc(O)cc1)C(N)=O)[C@@H](C)O)C(C)C)[C@@H](C)O
notes: modifications are with respect to human amylin; also called compound 25
B4: N^α1N^α1-[(4S)-4-carboxy-4-(19-carboxynonadecanoylamino)butanoyl]-[Glu14,Arg17,Pro21,Pro27,Glu35]-h-amylin (peptide)
peptide: {C20 diacid-γGlu}-KCNTATCATQRLAEFLRHSSPNFGAIPSSTNVGSETY-NH2
modifications: disulfide 2-7
SMILES: CC[C@H](C)[C@H](NC(=O)[C@H](C)NC(=O)CNC(=O)[C@H](Cc1ccccc1)NC(=O)[C@H](CC(N)=O)NC(=O)[C@@H]1CCCN1C(=O)[C@H](CO)NC(=O)[C@H](CO)NC(=O)[C@H](Cc1c[nH]cn1)NC(=O)[C@H](CCCNC(=N)N)NC(=O)[C@H](CC(C)C)NC(=O)[C@H](Cc1ccccc1)NC(=O)[C@H](CCC(=O)O)NC(=O)[C@H](C)NC(=O)[C@H](CC(C)C)NC(=O)[C@H](CCCNC(=N)N)NC(=O)[C@H](CCC(N)=O)NC(=O)[C@@H](NC(=O)[C@H](C)NC(=O)[C@@H]1CSSC[C@H](NC(=O)[C@H](CCCCN)NC(=O)CC[C@H](NC(=O)CCCCCCCCCCCCCCCCCCC(=O)O)C(=O)O)C(=O)N[C@@H](CC(N)=O)C(=O)N[C@@H]([C@@H](C)O)C(=O)N[C@@H](C)C(=O)N[C@@H]([C@@H](C)O)C(=O)N1)[C@@H](C)O)C(=O)N1CCC[C@H]1C(=O)N[C@@H](CO)C(=O)N[C@@H](CO)C(=O)N[C@H](C(=O)N[C@@H](CC(N)=O)C(=O)N[C@H](C(=O)NCC(=O)N[C@@H](CO)C(=O)N[C@@H](CCC(=O)O)C(=O)N[C@H](C(=O)N[C@@H](Cc1ccc(O)cc1)C(N)=O)[C@@H](C)O)C(C)C)[C@@H](C)O
notes: modifications are with respect to human amylin; also called compound 22
B5: N^α1-[(4S)-4-carboxy-4-(19-carboxynonadecanoylamino)butanoyl]-[His14,Arg17,Pro21,Pro27,Glu35]-h-amylin (peptide)
peptide: {C20 diacid-γGlu}-KCNTATCATQRLAHFLRHSSPNFGAIPSSTNVGSETY-NH2
modifications: disulfide 2-7
SMILES: CC[C@H](C)[C@H](NC(=O)[C@H](C)NC(=O)CNC(=O)[C@H](Cc1ccccc1)NC(=O)[C@H](CC(N)=O)NC(=O)[C@@H]1CCCN1C(=O)[C@H](CO)NC(=O)[C@H](CO)NC(=O)[C@H](Cc1c[nH]cn1)NC(=O)[C@H](CCCNC(=N)N)NC(=O)[C@H](CC(C)C)NC(=O)[C@H](Cc1ccccc1)NC(=O)[C@H](Cc1c[nH]cn1)NC(=O)[C@H](C)NC(=O)[C@H](CC(C)C)NC(=O)[C@H](CCCNC(=N)N)NC(=O)[C@H](CCC(N)=O)NC(=O)[C@@H](NC(=O)[C@H](C)NC(=O)[C@@H]1CSSC[C@H](NC(=O)[C@H](CCCCN)NC(=O)CC[C@H](NC(=O)CCCCCCCCCCCCCCCCCCC(=O)O)C(=O)O)C(=O)N[C@@H](CC(N)=O)C(=O)N[C@@H]([C@@H](C)O)C(=O)N[C@@H](C)C(=O)N[C@@H]([C@@H](C)O)C(=O)N1)[C@@H](C)O)C(=O)N1CCC[C@H]1C(=O)N[C@@H](CO)C(=O)N[C@@H](CO)C(=O)N[C@H](C(=O)N[C@@H](CC(N)=O)C(=O)N[C@H](C(=O)NCC(=O)N[C@@H](CO)C(=O)N[C@@H](CCC(=O)O)C(=O)N[C@H](C(=O)N[C@@H](Cc1ccc(O)cc1)C(N)=O)[C@@H](C)O)C(C)C)[C@@H](C)O
notes: modifications are with respect to human amylin; also called compound 30

The first test concerns the target T1, human calcitonin receptor. Briefly: IC50 at hCTR divided by IC50 at hAmylin-R (reference). The method in brief: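 Competition binding by SPA uses membrane preparations (35 ng/μL final) in pH 7.4 Hepes buffer with 1 mM CaCl2 and 5 mM MgCl₂. Incubation lasts 120 min at 25° C, and IC₅₀ comes from one-site fitting.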
For the molecule B1, the “Ratio hCT/hAmylin binding” value was 3.9.

B2: the “Ratio hCT/hAmylin binding” value is 47.5.

For the molecule B3, the “Ratio hCT/hAmylin binding” value was determined as 56.5.

B4: the “Ratio hCT/hAmylin binding” value amounted to 12.3.

With B5, the “Ratio hCT/hAmylin binding” value is 23.6.

For a further test, the target named is T2, rat calcitonin receptor. Briefly: IC50 at rCTR divided by IC50 at rAmylin-R (reference).
In the case of B1, the “Ratio rCT/rAmylin binding” value was determined as 12.6.

Turning to B2, the “Ratio rCT/rAmylin binding” value came to 309.

As to B3, the “Ratio rCT/rAmylin binding” value stood at 37.7.

Consider B4, for which the “Ratio rCT/rAmylin binding” value amounted to 28.5.

With B5, the “Ratio rCT/rAmylin binding” value was determined as 36.1.

The target of another test is T2, rat calcitonin receptor. Briefly: SPA competition vs 125I-calcitonin, membranes with rat CTR (Assay VIII).
As a reminder, the IC50 is the concentration that inhibits the measured activity by half. In the case of B1, the IC50 is 28.9 nM.

Take B2: the IC50 is 152 nM.

For B3, the IC50 is 131 nM.

Regarding B4, the IC50 amounted to 62.5 nM.

With B5, the IC50 amounted to 114 nM.

The target in another test is T3, rat amylin receptor (rat calcitonin …). Briefly: SPA competition vs 125I-rat amylin, membranes with rat CTR + rat RAMP3 (Assay VI).
Consider B1, for which the IC50 is 2.29 nM.

As for B2, the IC50 stood at 0.491 nM.

On to B3, for which the IC50 was 3.48 nM.

B4: the IC50 came to 2.19 nM.

Take B5: the IC50 worked out at 3.14 nM.
